The data set in a line: label from the status in PepcDB records.

As to “MKLNATYIKIRDKWWGLPLFLPSLILPIFAHINTFAHISSGEVFLFYLPLALMISMMMFFSWAALPGIALGIFVRKYAELGFYETLSLTANFIIIIILCWGGYRVFTPRRNNVSHGDTRLISQRIFWQIVFPATLFLILFQFAAFVGLLASRENLVGVMPFNLGTLINYQALLVGNLIGVPLCYFIIRVVRNPFYLRSYYSQLKQQVDAKVTKKEFALWLLALGALLLLLCMPLNEKSTIFSTNYTLSLLLPLMMWGAMRYGYKLISLLWAVVLMISIHSYQNYIPIYPGYTTQLTITSSSYLVFSFIVNYMAVLATRQRAVVRRIQRLAYVDPVVHLPNVRALNRALRDAPWSALCYLRIPGMEMLVKNYGIMLRIQYKQKLSHWLSPLLEPGEDVYQLSGNDLALRLNTESHQERITALDSHLKQFRFFWDGMPMQPQIGVSYCYVRSPVNHIYLLLGELNTVAELSIVTNAPENMQRRGAMYLQRELKDKVAMMNRLQQALEHNHFFLMAQPITGMRGDVYHEILLRMKGENDELISPDSFLPVAHEFGLSSSIDMWVIEHTLQFMAENRAKMPAHRFAINLSPTSVCQARFPVEVSQLLAKYQIEAWQLIFEVTESNALTNVKQAQITLQHLQELGCQIAIDDFGTGYASYARLKNVNADLLKIDGSFIRNIVSNSLDYQIVASICHLARMKKMLVVAEYVENEEIREAVLSLGIDYMQGYLIGKPQPLIDTLNEIEPIRESA”, the protein production result is given as “failed”.
In the case of “MKLNRAIGVIDSGVGGLTVAKELIRQLPKERIIYLGDTARCPYGPRSREEVRQFTWEMTEHLLDLNIKMLVIACNTATAVVLEEMQKQLPIPVVGVIHPGSRTALKVTNTYHVGIIGTIGTVKSGAYEEALKSINNRVMVESLACPPFVELVESGNFESEMAYEVVRETLQPLKNTDIDTLILGCTHYPILGPVIKQVMGDKVQLISSGDETAREVSTILYHSKMLNEGEEQSDHLFLTTGKIGLFKEIASKWFGQPIENVKHIHLEKE” it was “failed”; in that of “MKLRTQISILLIVFAVLLSGIVFAGFQLNKESVTGRQLDETTQHSERIAAGLDTRLKGLKRTVRLQATNPAIAAHGTPQQHYALKTMVNETMFNGVSVIHRNGTMTGIAAGLDPETRSELIGSDFSDRHYFQRARNGETYISAPVVADSGNYIVTISTPIYRDGAVVGTLNAALHLQDSSIFRMASKTANRDSSVFIRTQSGNQIYNRSAHLSSDPVTANATVNETGWIVQVQTSRNVLAGDLRTVTIYQLGGIGLVLALISGFGSILYTQILRYHRQLVRGFEALQRQEYGQQVAEEATGDWGQIFTAFNELSQTLAEYEEERVKHRNELQQERDRFRRLFQSIPEPAVVVEYTGNKTLIHNVNEAFEETFGYEASNAVGGDINDFIVPDGSLEEAESIDQLSSSGKQVTHEVRREAADGKRDFLLRSTPAVDGEDEVYFGVYIDITDRKQQERELTETNSVLSSVLDNMPVGILIEDADRTITTANKKLLDILDVSLTPSGLIGCEYAEIAETLKTQFADPDQFNETVNKIHSTRDAVFDEELLMADGRILARSYVSYSLPDGTGNIWLYRDITKNRQRERKLRETLEKTQKLIQAESIDEAATIAVEIANQTLSFPLSSVHLERKDGELEPAAITDAFEEGVGDTPVYQRTADNSSIDKLVWDVYTSGETRVLTDTGAEIPETISGMPSSGGIIQPMTNHGVLVTLGDSPNRFDEFDQYLVELLGAILATTLDRINQKQQIESQRDNLDLLNQIVRHDIRNDLQILLGRLDLLAERANDAQSEHVNAALRCAENAVELTQSARELSEVLLQNGTDSKPISLNRVVRQQIEEIRSANTDAEITINGSIPDVMIRANEMFDSVIRNLLKNAIQHNDKQDPEITISAIDQKEYVQLRIADNGPGVRDAQKESIFGKGEKELESSGTGIGLYLVSTLIESYGGDVWVEDNNPRGAVFVIELVKDS”, “failed”.
In the case of “MKLSFSLPSKSKPKVTATTADGNNAVDDGTSKEFVTEFDPSKTLANSIPKYVIPPIENTWRPHKKMKNLDLPLQSGNAGSGLEFEPEVPLPGTEKPDNISYGLNLRQKVKDDSIGGDAVEERKVSMGEQLMLQSLRRDLMSLADDPTLEDFESVPVDGFGAALMAGYGWKPGKGIGKNAKEDVEIKEYKKWTAKEGLGFDPDRSKVVDVKAKVKESVKLDKKGVGINGGDVFFVGKEVRIIAGRDVGLKGKIVEKPGSDFFVIKISGSEEEVKVGVNEVADLGSKEEEKCLKKLKDLQLNDREKDKKTSGRGRGAERGSRSEVRASEKQDRGQTRERKVKPSWLRSHIKVRIVSKDWKGGRLYLKKGKVVDVVGPTTCDITMDETQELVQGVDQELLETALPRRGGPVLVLSGKHKGVYGNLVEKDLDKETGVVRDLDNHKMLDVRLDQVAEYMGDMDDIEY” it was “failed”.
To “MKLSIHGRKITLTDAIRKYAEEKISKVEKFNDSIIKIDATLAASKLKTGNAHVTEILAYLSGSTLKATATESDLYASIDKAVDIMESLLKKHKEKRSRAKVQDDTRKKSYSFDYIVEPEEKLSDEKKLVRVYLPLKPMEISEAILQLEYLNRVFFAFTNTTTGKMAVVYKRKDGDYGVIED” belongs “failed”; to “MKLSINDLNVFVNTPKDIAKLCEDLSRLGLEVESCIPCIAPKNVVVGKILEKAPHKNAEKLSVCQVDVGKEVLQIVCGAKNVAPNQFVPVALNGALIGSTTIAKTELRGVESHGMICSSIELGFPKINDGILELDESVGELVLGKELNEYAPFNTHVLEISLTPNRGDCLSVLGIAREISAFYHTPLKPIKALNFTPKSGLITLSAGENIESHLAYYLICNHSLKTPLNIKLSLAHNNALSENDLNNFIEFSTHFSGVIMNAYSLNTTPMDLSVKNDENNLESVYINHQKRSTIAIKHQVQKDLSECLLLEASYTDPISLSLKLHALKDKTLQKDNALIYRSARGSNPNLSDGLNFLSAHLKATILESKQTEHSLKDRTLTFQLEDITEILGLAVEKEKIQGILKNLGFKVSVKEPNSKPQILEVIAPNFRHDIKTIQDIAEEILRFVGIDNLVSKPLHCVSSKNSNPNYDTHRFFENLKHKALACGFKEVIHYVFYSKEKQQKLGFEVLEDPLELQNPITTELNTLRTSLVCGLLDASLRNKNLGFKSIALYEKGSVYNSKREEIQKLGFLISGLQKKESYPDTKGKAWDFYSFAECVSKVIGDFSLEKLTTQTPINHPYQSAKIIQNHEIIGVIAKIHPKVIQELDLFESYYAEIDAFKLKRPAMLLKPFSIYPSSVRDLTLIIDENTAFSGIKKALKDAQIPNLSEILPLDIFKESNNSIALSVRCVIHSLEKTLNDEEVNSAVQKALEILEKEFNARLKG”, “failed”; to “MKLTIIRLENFSDQDRIDLQKIWPEYSPSSLQVDDNYRIYAARFNERLLAAVRVTLSGTEGALDSLRVREVTRRRGVGQYLLEEVLRNNPDVSCWWMADAGVEDRGVMTAFMRALGFTAQQGGWEKH”, “failed”.
Take “MKLVCISDTHSLHRRIPEIPDGDVLIHAGDSLGQGSLENIEDLNDWLGTLPHRHKIVIAGNHDWAFQEMPGEARTALSNAVYLEDSGVEIEGNRFWGSPWTPTFMDWAFMLERGEPLYQKWQLVPDNTDVLITHGPPKGIGDEANLGFKCQNVGCVDLLARIHQLSLKAHIFGHIHEGYGEYLRGKTRLINASTCTARYEPRNAPIVVDVLEHHHHHH”: the protein production result is listed as “failed”.
In the case of “MKLVFVTVNYNNIDETRKVLNCFSGLSHGENSVLYVVDNSDSKSECQSLDKENTNNKIKFLYPKENLGYLTGASFGVDFHYNNHGFDFDYLIILNNDIIFNVNEVLKSLEIFSQNNDAMMISPLVIDRGVNVNPYLTVRKSKRYMMFWNFILSNFFTFKVFHKINKYRALLSSKNNFSSTVQPFQKIYGSHGSVFILKNEYFLRGGSLRRLPFLYGEEIYIAEQVRKLGGDCVYYPSIKFEHKGSATLGNDTSRFKYLCIKQGHSFLYREFYS” it was “failed”; in that of “MKLVTISGPPSSGKTAVLAGVIRAMMASGLKVGALKYDCLATNDDDVFRAIGVPVQTGLSGNLCPDHYFVSNIEECLDWGIREGFDFLLSESAGLCNRCAPHIKGVLAVCVIDNLMGATTPKKIGPMLKYADIVVITKGDIVSQAEREVFAFQVRRANPRAKIMHVNGITGQGAGELASQFLLAPETTCLDGSRLRFSMPAALCSYCLGETRIGMEFQLGNVKKIKMSEEPARLEHHHHHH”, “not failed”.
As for “MKLYKLLILDIDGTLRDEVYGIPESAKHAIRLCQKNHCSVVICTGRSMGTIQDDVLSLGVDGYIAGGGNYIQYHGELLYNQSFNQRLIKEVVCLLKKREVAFSIESQEKVFMNQKAKEIFETMNQLKGTNSCINKQHIQEKITYENNIEEYKSQDIHKICLWSNEKVFDEVKDILQDKMELAQRDISSQYYEIIQKDFHKGKAIKRLQERLGVTQKETICFGDGQNDIVMFQASDVTIAMKNSHQQLKDIATSICEDIFDNGIYKELKRRNII”, the protein production result is given as “not failed”.
Consider “MKMANHPRPGDIIQESLDELNVSLREFARAMEIAPSTASRLLTGKAALTPEMAIKLSVVIGSSPQMWLNLQNAWSLAEAEKTVDVSRLRRLVTQSTP”, for which the protein production entry is on record as “not failed”.
To “MKMHRDSISLNSYEEMAEYYFSYVDQKPFNAYYERPATLSLLPDVAGKRVLDAGCAAGWYTQWLLDKGAAVTAVDFSAGMIEMTRKRVGERAEIIRADLNEPLDFMAKESCDIVLSSLALHYLKDWTLVMSEFHRILAKGGLLIFSVHHPFMDFTVFQRDNYFLTELLDDEWETQKGKVKVQFYRRPLSQILSAVLEAGFLLEKVLEPMPTEEFKSAQPDAYRRLTYKPQFLFLRARKP” belongs “failed”.
In the case of “MKMKHMKPYTTMKTVLSTLAIALAFGPLHNAQACTRILYETGNQSYISGRSMDWADPSAATALWVFPKGMKRDGTVGDNPIKWSAKYGSIIVSFYDAGTADGMNEKGLVANMLYLKEAKWGDATKAGKPTLTAGAWAQYFLDNYATVEEAVTAMANPPFTIIAPSLPNGDAAALHLSISDVNGDSAIFEYIDGKLVIHHGSQYKVMTNSPTFDQQLALNTYWQQIGGSKFLPGTINAADRFVRASYALSASPKYRDNDLALASVFSQIRAVSVPLGITDPDRPNLAMTLWRTFADHTAKIYYFESAVFPAVSWLDMSKVDLTEGAAPKVVRVERGQPLAGELSAALKPAEPFKWLGAE” it was “failed”.
In the case of “MKMKILGISFGTKNGNNDTMCKVALKGAKEAGAEVEFIQMSSINIKHCTGCCACVKTLLSGKGSMCVLKDDFEWLLDKMKDADGIVVSDPIFEEGASGLFHTIMDRFGPRADRGNNIIGTKVAEAIGGKIPDSRMLNDKVISFMGIGGSDWGTRVQCEHAMLALIPMWKVIDNAWFPWAKELVMDDTRLVQVHQIGLNIVEAAKDFEKASYQGEEGVCPHCHNRLFYLEPGTKKAICALCGIVGELDTISGKTIFSFPEEQLGHAHDTLPGKFIHGDDIKKMEGHYAEVRKTQEFKERKTSYNFIETLTKEKQAGVSLG” it was “failed”; in that of “MKMKSKTKSCCQYTQWVVLALLTLIFASCKDNDDATGDFDPNKPVVISEFSPKEGGLGTRMLLYGENFGSDISKIKVTIGGQDSKVVGAKGKSLYCVVPAKAYDGDIKLSILNDEGEEIANTEANEKFVYQKKMLVTTFLGTMYDGNTKYDLKDGPFDDCGGFGGAVWLSFDPKNHNHLYLVGEQHPTRLIDFEKEYVSTVYSGLSKVRTICWTHEADSMIITNDQNNNDRPNNYILTRESGFKVITELTKGQNCNGAETHPINGELYFNSWNAGQVFRYDFTTQETTPLFTIQDSGWEFHIQFHPSGNYAYIVVVNQHYILRSDYDWKTKRLTTPYIVCGQQGAKDWVDGVGKKARMHAPRQGTFVKNPAYKGSSDEYDFYFCDRENHCIRILTPQGRVTTFAGRGSNGTSGYNDGDLRQEARFNHPEGIVYDEERECFFIGDRENRRIRKIGYEE”, “failed”.
As to “MKMSELEKMLKGEHFDGASAEIEALRSQAGRLKLEINQSLDEAERYALQRELFGHLGHKSCVQPPFHCEFGKTIRIGDHTFINMNVVMLDGAPITIGDHVLIGPSTQFYTASHSLDYRRRQAWETICKPIVIEDDVWIGGNVVINQGVTIGARSVVAANSVVNQDVPPDTLVGGTPARILRSLKDPAESMAE”, the protein production entry is “not failed”.

Source of the values: a protein production outcome set (Wang et al. 2014).
